{"source": "paper PMC7863392", "about": "(EMBO Molecular Medicine, 2020)", "key": {"[1]": {"biological_target": "T1, recombinant, His-tagged PSMA produced by transfected CHO cells (Homo sapiens, UniProt Q04609)", "T1 construct": "prostate-specific membrane antigen (PSMA; FOLH1); probably the soluble extracellular part (surmised); source: transfected CHO cells", "T1 sequence (Q04609 56-750)": "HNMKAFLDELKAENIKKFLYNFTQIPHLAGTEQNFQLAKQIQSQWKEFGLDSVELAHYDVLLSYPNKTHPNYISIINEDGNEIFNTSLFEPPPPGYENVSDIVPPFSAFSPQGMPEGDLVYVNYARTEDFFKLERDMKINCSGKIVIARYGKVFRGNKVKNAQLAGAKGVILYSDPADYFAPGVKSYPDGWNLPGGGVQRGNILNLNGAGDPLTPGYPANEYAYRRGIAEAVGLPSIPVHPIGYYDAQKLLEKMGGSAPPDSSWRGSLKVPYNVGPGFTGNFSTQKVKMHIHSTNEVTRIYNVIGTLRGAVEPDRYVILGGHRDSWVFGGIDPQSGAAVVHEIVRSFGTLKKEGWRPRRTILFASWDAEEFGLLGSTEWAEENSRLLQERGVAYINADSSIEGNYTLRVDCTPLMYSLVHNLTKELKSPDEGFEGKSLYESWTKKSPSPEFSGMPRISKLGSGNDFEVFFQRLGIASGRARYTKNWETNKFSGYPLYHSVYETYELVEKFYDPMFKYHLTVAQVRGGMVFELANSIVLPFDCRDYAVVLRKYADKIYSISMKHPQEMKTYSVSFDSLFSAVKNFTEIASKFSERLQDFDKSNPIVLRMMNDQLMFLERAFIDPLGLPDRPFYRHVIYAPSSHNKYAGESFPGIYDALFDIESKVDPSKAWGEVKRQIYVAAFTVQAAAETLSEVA", "assay": "SPR; chimeric antibodies immobilised on a Protein A coated sensor chip; His-tagged PSMA flowed; Biacore X, 25°C, 30 μl/min", "settings": "both partners purified"}, "[2]": {"biological_target": "T2, PSMA in lysates of 22Rv1^high cells and of lung SCC tumor samples (Homo sapiens, UniProt Q04609-1)", "T2 construct": "prostate-specific membrane antigen (PSMA; FOLH1), human, endogenous; also called FOLH1; source: endogenous, lysates of 22Rv1^high cells and of slices of lung squamous cell carcinoma tumors", "T2 sequence (Q04609 whole entry)": "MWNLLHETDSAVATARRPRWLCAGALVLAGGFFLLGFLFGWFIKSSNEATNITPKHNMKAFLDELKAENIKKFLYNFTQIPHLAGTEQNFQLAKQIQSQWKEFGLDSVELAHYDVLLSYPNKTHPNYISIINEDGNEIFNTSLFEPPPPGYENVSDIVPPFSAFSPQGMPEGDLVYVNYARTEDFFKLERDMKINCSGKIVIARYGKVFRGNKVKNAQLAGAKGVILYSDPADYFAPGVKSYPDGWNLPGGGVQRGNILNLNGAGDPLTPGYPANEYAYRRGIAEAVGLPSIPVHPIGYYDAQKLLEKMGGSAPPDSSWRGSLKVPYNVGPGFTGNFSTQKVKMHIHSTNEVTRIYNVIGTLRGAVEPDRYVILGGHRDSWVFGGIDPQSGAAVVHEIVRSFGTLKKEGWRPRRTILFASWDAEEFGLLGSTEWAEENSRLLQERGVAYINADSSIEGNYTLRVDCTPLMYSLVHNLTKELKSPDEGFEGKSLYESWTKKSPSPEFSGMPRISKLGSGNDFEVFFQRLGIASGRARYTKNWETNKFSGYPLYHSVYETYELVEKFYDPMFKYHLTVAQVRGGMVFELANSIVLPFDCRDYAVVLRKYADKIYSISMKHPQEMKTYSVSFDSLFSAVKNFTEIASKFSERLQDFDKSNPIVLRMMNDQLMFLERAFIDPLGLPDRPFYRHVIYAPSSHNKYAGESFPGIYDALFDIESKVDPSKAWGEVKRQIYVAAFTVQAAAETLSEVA", "assay": "co-IP; immunoprecipitation of PSMA from 22Rv1^high cell lysate with chimeric antibody on protein G agarose beads; Western blot with murine J591", "settings": "one partner purified"}}}
{"binder": "chimeric J591 antibody (murine J591 variable regions fused to human constant regions) (antibody, V domains shown) VH: EVQLQQSGPELVKPGTSVRISCKTSGYTFTEYTIHWVKQSHGKSLEWIGNINPNNGGTTYNQKFEDKATLTVDKSSSTAYMELRSLTSEDSAVYYCAAGWNFDYWGQGTTLTVSS VL: DIVMTQSHKFMSTSVGDRVSIICKASQDVGTAVDWYQQKPGQSPKLLIYWASTRHTGVPDRFTGSGSGTDFTLAITNVQSEDLADYFCQQYNSYPLTFGAGTKLEIK", "values": [{"measurement": "binding result", "setting": "[1]", "value": "binds"}, {"measurement": "binding result", "setting": "[2]", "value": "binds"}]}
